# Test results as given in patent publication US20240166754A1 (SYNTHEKINE, published 2024).
# T1: extracellular domain of mouse IL12RB1 (mIL12Rb1 ECD antigen) (mouse, UniProt Q60837 20-565)
# T1 construct: also called murine IL12RB1
# T1 sequence: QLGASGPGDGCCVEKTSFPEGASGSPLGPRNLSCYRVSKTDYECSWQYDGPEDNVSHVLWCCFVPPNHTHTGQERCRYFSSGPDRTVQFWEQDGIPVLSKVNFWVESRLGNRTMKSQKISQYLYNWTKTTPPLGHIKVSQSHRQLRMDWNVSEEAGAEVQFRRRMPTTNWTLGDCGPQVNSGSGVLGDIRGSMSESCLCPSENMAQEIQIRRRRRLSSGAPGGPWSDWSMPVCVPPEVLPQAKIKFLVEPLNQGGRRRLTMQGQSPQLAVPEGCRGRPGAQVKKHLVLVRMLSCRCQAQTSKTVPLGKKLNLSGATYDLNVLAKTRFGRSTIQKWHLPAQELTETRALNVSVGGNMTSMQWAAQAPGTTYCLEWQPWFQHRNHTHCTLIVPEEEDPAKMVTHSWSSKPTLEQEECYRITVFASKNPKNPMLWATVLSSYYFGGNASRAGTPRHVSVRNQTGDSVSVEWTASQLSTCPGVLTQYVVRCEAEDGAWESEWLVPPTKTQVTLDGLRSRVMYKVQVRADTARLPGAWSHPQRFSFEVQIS
# Molecular target: T2, extracellular domain of human IL12RB1 (hIL12Rb1 ECD antigen) (human, UniProt P42701 24-545)
# T2 construct: also called IL12Rβ1; CD212
# Test: periplasmic extract ELISA on antigen-coated plate after phage biopanning
# Experimental: (§1) Upon completion of the biopanning of Example 3, three 96-well plates of individual phage clones were isolated in order to perform periplasmic extract ELISA (PE-ELISA) on IL12Rb1 coated plates to identify positive VHH binders that selectively bound IL12Rb1. A 96-well plate was coated with IL12Rb1 and PBS under the same conditions. Next, wells were blocked at 37° ° C. for 1 h. Then, 100 μl of extracted antibodies was added to each well and incubated for 1 h. Subsequently, 100 μl of anti-tag polyclonal antibody conjugated to HRP was added to each well and incubated at 37 °C for 1 h. Plates were developed with TMB substrate. The reaction was stopped by the addition of H2SO4. Absorbance at 450 nm was read on a microtiter plate reader. Antibodies with absorbance of the antigen-coated well at least threefold greater than PBS-coated control are VHHs that specifically bind to IL12Rb1. Positive clones were sequenced, and sequences analyzed to identify unique clonotypes.
row,binding result,Binder
1,binds,"hIL12Rb1_VHH1 (VHH, Camel VHH) VHH: QVQLQESGGGSVQAGGSLRLSCVASGYGYCGYDMSWYRQAPGKEREFVALITSDRSISYEDSVKARFIISRDNAANTGYLDMTRLTPDDTAIYYCKTSAAARESSWCRSRYRVASWGQGTQVTVSS"
2,binds,"hIL12Rb1_VHH10 (VHH, Camel VHH) VHH: QVQLQESGGGSVQAGGSLRLSCAVSGYDYCGYDVRWYRQAPGKEREFVSGIDSDGSTSYADSVKGRFTISQDNAENTSYLHMFSLKPEDTAMYYCKTESPAGESAWCRNFRGMDYWGKGTQVTVSS"
3,binds,"hIL12Rb1_VHH14 (VHH, Camel VHH) VHH: QVQLQESGGGSVQAGGSLRLSCAVSGYDYCGYDVRWYRRAPGKEREFVSGIDSDGSTSYADSVKGRFTISQDNAENTSYLHMFSLKPEDTAMYYCKTESPAGESAWCRNFRGMDYWGKGTQVTVSS"
4,binds,"hIL12Rb1_VHH7 (VHH, Camel VHH) VHH: QVQLQESGGGSVQAGGSLRLSCAVSGYDYCGYDVRWYRRAPGKEREFVSGIDSDGSTSYADSVKGRFTISQDNAENTSYLHMFSLKPEDTAMYYCKTESPAGESAWCRNFRGMDYWGKGTQVTVSS"

# Molecular target: T1, extracellular domain of mouse IL12RB1 …
# Test: as above
# Experimental: as §1
row,Binder,binding result
1,"mIL12Rb1_VHH3 (VHH, Camel VHH) VHH: QVQLQESGGGSVQAGGSLRLSCVASGYSYCGYDMMWYRQAPGKEREFVALITSDYSIRYEDSVEGRFSISRDNAKNTGYLLMSNLTPADTAIYYCKTSTAARESSWCRSRYRVASWGQGTQVTVSS",binds
2,"mIL12Rb1_VHH11 (VHH, Camel VHH) VHH: QVQLQESGGGSVQAGGSLRLSCVASGYSYCGYDMMWYRQAPGKEREFVALITSDYSIRYEDSVEGRFSISRDNAKNTGYLLMSNLTPADTAIYYCKTSTAARESSWCRSRYRVASWGQGTQVTVSS",binds
3,"mIL12Rb1_VHH13 (VHH, Camel VHH) VHH: QVQLQESGGGSVQAGGSLRLSCVASGYSYCGYDMMWYRQAPGKEREFVALITSDYSIRYEDSVEGRFSISRDNAKNTGYLLMSNLTPADTAIYYCKTSTAARESGWCRSRYRVASWGQGTQVTVSS",binds
4,"mIL12Rb1_VHH1 (VHH, Camel VHH) VHH: QVQLQESGGGSVQAGGSLRLSCTASGYTYSSAFMAWFRQAPGKEREGVAAIYTRDGGTVYADSVKGRFTISQDNAKNTLYLQMNSLKAEDTAMYYCAAKIPQPGRASLLDSQTYDYWGQGTQVTVSS",binds
5,"mIL12Rb1_VHH18 (VHH, Camel VHH) VHH: QVQLQESGGGSVQAGGSLRLSCTASGYTYSSAFMAWFRQAPGKEREGVAAMYTRDGGTVYADSVKGRFTISQDNAKNTLYLQMNSLKTEDTAMYYCAAKIPQPGRASLLDSQTYDYWGQGTQVTVSS",binds
6,"mIL12Rb1_VHH17 (VHH, Camel VHH) VHH: QVQLQESGGGSVQAGGSLRLSCTASGYTYSSAFMAWFRQAPGKEREGVAAMYTRDGGTVYADSVKGRFTISQDNAKNTLYLQIHTLKAEDTAMYYCAAKIPQPGRASLLDSQTYDYWGQGTQVTVSS",binds
7,"mIL12Rb1_VHH6 (VHH, Camel VHH) VHH: QVQLQESGGGSVQAGGSLRLSCTASGYTYSSAFMAWFRQAPGKEREGVAAIYTRDGSPVYADSLKGRFTISQDNAKNTLHLQMNSLKPEDTAMYYCAAKIPEPGRISLLDSQTYDYWGHGTQVTVSS",binds
8,"mIL12Rb1_VHH23 (VHH, Camel VHH) VHH: QVQLQESGGGSVQAGGSLRLSCTASGYTYSSAFMAWFRQAPGKEREGVAAIYTRDGGTVYADSVKGRFTISQDNAKNTLYLQMNSLKPEDTAMYYCAAKMPQPGRASLLDSQTYDYWGQGTQVTVSS",binds
9,"mIL12Rb1_VHH22 (VHH, Camel VHH) VHH: QVQLQESGGGSVQAGGSLRLSCTASGYTYSSAFMAWFRQAPGKEREGVAAIYTRDGGTVYADSVKGRFTISQDNAKNILYLQMNSLKAEDTAMYYCAAKIPQPGRASLLDSQTYDYWGQGTQVTVSS",binds
10,"mIL12Rb1_VHH5 (VHH, Camel VHH) VHH: QVQLQESGGGSVQAGETLRLSCTVSGFTIDDSEMGWYRQAPGHECELVASGSSDDDTYYVDSVKGRFTISLDNAKNMVYLQMNSLKPEDTAVYYCATGPTYPPKDGDCAHWGQGTQVTVSS",binds
11,"mIL12Rb1_VHH4 (VHH, Camel VHH) VHH: QVQLQESGGGSVQAGGSLRLSCAASRYTYTNNFMAWFRQAPGKEREGVAAIYTGDGYAYYFDSVKGRFTISQDNDKNMLYLQMNSLKPEDTAMYYCAAMERRSGRRRMTENAEYKYWGQGTQVTVSS",binds
12,"mIL12Rb1_VHH2 (VHH, Camel VHH) VHH: QVQLQESGGGSVQAGGSLRLSCAVSGYDYCGYDVRWYRQAPGKEREFVSGIDSDGSTSYADSVKGRFTISQDNAENTSYLHMFSLKPEDTAMYYCKTESPAGESAWCRNFRGMDYWGKGTQVTVSS",binds
13,"mIL12Rb1_VHH19 (VHH, Camel VHH) VHH: QVQLQESGGGSVQAGGFLRLSCVASGYGYCGYDMSWYRQVPGKEREFVALITSDRSVSYEDSVKGRFSISRDNAKNTAYLEMNRLTPDDTAIYYCKTSTAARENNWCRSRYRIASWGQGTQVTVSS",binds

# Further lines, results first:
row,binding result,Binder
1,binds,"mIL12Rb1_VHH12 (VHH, Camel VHH) VHH: QVQLQESGGGSVQAGGSLRLSCAASRYTYTNNFMAWFRQAPGKEREGVAAIYTGDGYAYYFYSVKGRFTISQDNDENMLYLQMNSLKPEDTAMYYCAAMERRIGTRRMTENAEYKYWGQGTQVTVSS"
2,binds,"mIL12Rb1_VHH9 (VHH, Camel VHH) VHH: QVQLQESGGGSVQAGGSLRLSCVASGYGYCGYDMSWYRQAPGKEREFVALITSDRSISYEDSVKARFIISRDNAANTGYLDMTRLTPDDTAIYYCKTSAAARESSWCRSRYRVASWGQGTQVTVSS"
3,binds,"mIL12Rb1_VHH10 (VHH, Camel VHH) VHH: QVQLQESGGGSVQAGGSLRLSCAVSGYDYCGYDVRWYRQAPGKEREFVSGIDSDGSTSYADSVKGRFTISQDNAENTSYLHMFSLKPEDTAMYYCKTESPAGESAWCRNFRGMDYWGKGTQVTVSS"
4,binds,"mIL12Rb1_VHH16 (VHH, Camel VHH) VHH: QVQLQESGGGSVQAGGSLRLSCAVSGYDYCGYDVRWYRQAPGKEREFVSGINSDGSTSYADSVKGRFTISQDNAENTSYLHMFSLKPEDTAMYYCKTEGPAGESAWCRNFRGMDYWGKGTQVTVSS"
5,binds,"mIL12Rb1_VHH21 (VHH, Camel VHH) VHH: QVQLQESGGGSVQAGGSLRLSCAVSGYDYCGYDVRWYRRAPGKEREFVSGIDSDGSTSYADSVKGRFTISQDNAENTSYLHMFSLKPEDTAMYYCKTESPAGESAWCRNFRGMDYWGKGTQVTVSS"
6,binds,"mIL12Rb1_VHH7 (VHH, Camel VHH) VHH: QVQLQESGGGSVQAGGSLRLSCAVSGYDYCGYDVRWYRRAPGKEREFVSGIDSDGSTSYADSVKGRFTISQDNAENTSYLHMFSLKPEDTAMYYCKTESPAGESAWCRNFRGMDYWGKGTQVTVSS"
7,binds,"mIL12Rb1_VHH14 (VHH, Camel VHH) VHH: QVQLQESGGGSVQAGGSLRLSCAVSGYDYCGYDVRWYRQAPGKEREFVSGINSDGSTSYADSVKGRFTISQDNAENTSYLHMFSLKPEDTAMYYCKTESPAGESAWCRNFRGMDYWGKGTQVTVSS"
8,binds,"mIL12Rb1_VHH15 (VHH, Camel VHH) VHH: QVQLQESGGGSVQAGGFLRLSCVASGYGYCGYDMSWYRQVPGKEREFVALITSDRSVSYEDSVKGRFSISRDNAKNTAYLEMNRLTPDDTAVYYCKTSTAARENNWCRSRYRIAYWGQGTQVTVSS"
9,binds,"mIL12Rb1_VHH8 (VHH, Camel VHH) VHH: QVQLQESGGGSVQAGGFLRLSCVASGYGYCGYDMSWYRQAPGKEREFVALITSERVISYEDSVKGRFSISRDNAENTGYLEMNRLTPDDTAIYYCKTSAAARESSWCRSRYRVASWGQGTQVTVSS"
10,binds,"mIL12Rb1_VHH20 (VHH, Camel VHH) VHH: QVQLQESGGGSVQAGGSLRLSCVASGYGYCGYDMSWYRQTPGKEREFVALITSDRIASYEDSVKGRFIISRDNAKNTGYLDMTRVTPDDTAIYYCKTSAAARENSWCRSRYRVASWGQGTQVTVSS"
